The Immune Epitope Database (IEDB)

Experiments:
Assay in all cases: IEDB peptide-MHC binding, purified MHC/competitive/radioactivity; filed as Kd, often an IC50 or EC50 that approximates it; ≥ and ≤ were set here for values at or beyond the usual limits of such assays
[1] = molecular target: HLA-A*03:01
[2] = molecular target: HLA-A*11:01
[3] = molecular target: HLA-A*31:01
[4] = molecular target: HLA-A*33:01
[5] = molecular target: HLA-A*68:01
[6] = molecular target: HLA-A*02:02
[7] = molecular target: HLA-A*02:03
[8] = molecular target: HLA-A*02:06
[9] = source organism: Vaccinia virus WR
[10] = source organism: SARS coronavirus Tor2
[11] = source organism: Dengue virus 2 Jamaica/1409/1983
[12] = source organism: Lassa virus Josiah
[13] = source organism: Mammarenavirus caliense
[14] = source organism: Mammarenavirus machupoense

**Q.** With SITPNNLNK as the sequence, how does the Kd [1, 9] read?
**A.** 866 nM

**Q.** What about the Kd [2, 9] of the same sequence?
**A.** 25.4 nM

**Q.** What about the Kd [3, 9] of the same sequence?
**A.** ≥ 77900 nM

**Q.** And the Kd [4, 9]?
**A.** ≥ 77700 nM

**Q.** And the Kd [5, 9]?
**A.** 1450 nM

**Q.** SLKRFTHTT was tested. Which Kd [6, 9] did it give?
**A.** 825 nM

**Q.** What about the Kd [7, 9] of the same sequence?
**A.** 9.05 nM

**Q.** And the Kd [8, 9]?
**A.** ≥ 60100 nM

**Q.** For SLLRSTSQK, which Kd [1, 10] is on record?
**A.** 2.56 nM

**Q.** What about the Kd [2, 10] of the same sequence?
**A.** 12.8 nM

**Q.** What about the Kd [3, 10] of the same sequence?
**A.** 802 nM

**Q.** What about the Kd [4, 10] of the same sequence?
**A.** 14700 nM

**Q.** What about the Kd [5, 10] of the same sequence?
**A.** 3040 nM

**Q.** How did the Kd [7, 11] turn out when SMFEPEREKV was run?
**A.** 140 nM

**Q.** What does the source list for SQFSYKELYV?
**A.** Kd [6, 9]: 14.1 nM; Kd [7, 9]: 27.2 nM; Kd [8, 9]: 71.4 nM

**Q.** Which results are given for SSFIVPEFAK?
**A.** Kd [1, 9]: 37.4 nM; Kd [2, 9]: 0.534 nM; Kd [3, 9]: 9400 nM; Kd [4, 9]: 9270 nM; Kd [5, 9]: 2.23 nM

**Q.** Which results are given for SSYIDFENTK?
**A.** Kd [1, 9]: 629 nM; Kd [2, 9]: 0.158 nM; Kd [3, 9]: 137 nM; Kd [4, 9]: 392 nM; Kd [5, 9]: 23.5 nM

**Q.** Which results are given for STISWMMKL?
**A.** Kd [6, 9]: 92.2 nM; Kd [7, 9]: 22.8 nM; Kd [8, 9]: 12.1 nM

**Q.** What does the source list for SVLNDILSR?
**A.** Kd [1, 10]: 7790 nM; Kd [2, 10]: 148 nM; Kd [3, 10]: 1140 nM; Kd [4, 10]: 5660 nM; Kd [5, 10]: 4270 nM

**Q.** How did the Kd [1, 12] turn out when SVLRAVLPR was run?
**A.** 208 nM

**Q.** What about the Kd [2, 12] of the same sequence?
**A.** 8.96 nM

**Q.** What about the Kd [3, 12] of the same sequence?
**A.** 10.6 nM

**Q.** What about the Kd [4, 12] of the same sequence?
**A.** 537 nM

**Q.** What about the Kd [5, 12] of the same sequence?
**A.** 66.7 nM

**Q.** How did the Kd [6, 9] turn out when TAFFNTCKPT was run?
**A.** ≥ 31600 nM

**Q.** What about the Kd [7, 9] of the same sequence?
**A.** ≥ 22300 nM

**Q.** What about the Kd [8, 9] of the same sequence?
**A.** ≥ 33000 nM

**Q.** TIKESLLKET was tested. Which Kd [6, 9] did it give?
**A.** 1580 nM

**Q.** And the Kd [7, 9]?
**A.** 149 nM

**Q.** What about the Kd [8, 9] of the same sequence?
**A.** 87.2 nM

**Q.** TLISSDGAR was tested. Which Kd [1, 9] did it give?
**A.** 4090 nM

**Q.** What about the Kd [2, 9] of the same sequence?
**A.** 1400 nM

**Q.** And the Kd [3, 9]?
**A.** 80.3 nM

**Q.** And the Kd [4, 9]?
**A.** 198 nM

**Q.** And the Kd [5, 9]?
**A.** 5.13 nM

**Q.** How did the Kd [6, 9] turn out when TLLNETAKV was run?
**A.** 246 nM

**Q.** What about the Kd [7, 9] of the same sequence?
**A.** 83.1 nM

**Q.** What about the Kd [8, 9] of the same sequence?
**A.** 11.1 nM

**Q.** How did the Kd [1, 9] turn out when TLSERISSK was run?
**A.** 6.16 nM

**Q.** What about the Kd [2, 9] of the same sequence?
**A.** 2.91 nM

**Q.** What about the Kd [3, 9] of the same sequence?
**A.** 2310 nM

**Q.** And the Kd [4, 9]?
**A.** 9910 nM

**Q.** What about the Kd [5, 9] of the same sequence?
**A.** 48.3 nM

**Q.** What does the source list for TQVKELGIA?
**A.** Kd [6, 9]: 7220 nM; Kd [7, 9]: 52.2 nM; Kd [8, 9]: 55.6 nM

**Q.** Which results are given for TSEKYSKGY?
**A.** Kd [1, 9]: ≥ 78000 nM; Kd [2, 9]: ≥ 77900 nM; Kd [3, 9]: ≥ 77900 nM; Kd [4, 9]: ≥ 77700 nM; Kd [5, 9]: ≥ 77700 nM

**Q.** What does the source list for TSVSAKQLR?
**A.** Kd [1, 9]: ≥ 78000 nM; Kd [2, 9]: 2810 nM; Kd [3, 9]: 2600 nM; Kd [4, 9]: 9110 nM; Kd [5, 9]: 11.2 nM

**Q.** How did the Kd [6, 9] turn out when TTENAAYQV was run?
**A.** ≥ 77800 nM

**Q.** And the Kd [7, 9]?
**A.** ≥ 51300 nM

**Q.** What about the Kd [8, 9] of the same sequence?
**A.** 442 nM

**Q.** Which results are given for TTIKPVSYK?
**A.** Kd [1, 10]: 2.04 nM; Kd [2, 10]: 0.759 nM; Kd [3, 10]: 103 nM; Kd [4, 10]: 144 nM; Kd [5, 10]: 1.5 nM

**Q.** Which results are given for TVDFTDCRT?
**A.** Kd [6, 9]: 9680 nM; Kd [7, 9]: ≥ 27000 nM; Kd [8, 9]: 339 nM

**Q.** With VFAQVKQMYK as the sequence, how does the Kd [1, 10] read?
**A.** 66.5 nM

**Q.** And the Kd [2, 10]?
**A.** 60.6 nM

**Q.** And the Kd [3, 10]?
**A.** 124 nM

**Q.** What about the Kd [4, 10] of the same sequence?
**A.** 863 nM

**Q.** And the Kd [5, 10]?
**A.** 179 nM

**Q.** VFLILCFTIK was tested. Which Kd [1, 10] did it give?
**A.** 168 nM

**Q.** What about the Kd [2, 10] of the same sequence?
**A.** 371 nM

**Q.** And the Kd [3, 10]?
**A.** 613 nM

**Q.** And the Kd [4, 10]?
**A.** 4070 nM

**Q.** What about the Kd [5, 10] of the same sequence?
**A.** 965 nM

**Q.** Which results are given for VISVIFYFI?
**A.** Kd [6, 9]: 1.4 nM; Kd [7, 9]: 729 nM; Kd [8, 9]: 497 nM

**Q.** What does the source list for VLEKKVCAIT?
**A.** Kd [6, 9]: 590 nM; Kd [7, 9]: 1240 nM; Kd [8, 9]: 1680 nM

**Q.** How did the Kd [7, 11] turn out when VMKDGRVLV was run?
**A.** 50.7 nM

**Q.** Which results are given for VSMMSMYGK?
**A.** Kd [1, 9]: 15.2 nM; Kd [2, 9]: 1.18 nM; Kd [3, 9]: 113 nM; Kd [4, 9]: ≥ 23500 nM; Kd [5, 9]: 5 nM

**Q.** How did the Kd [1, 9] turn out when VSVDAMIHK was run?
**A.** 1820 nM

**Q.** And the Kd [2, 9]?
**A.** 2.46 nM

**Q.** And the Kd [3, 9]?
**A.** 7140 nM

**Q.** And the Kd [4, 9]?
**A.** ≥ 31900 nM

**Q.** And the Kd [5, 9]?
**A.** 1450 nM

**Q.** How did the Kd [6, 9] turn out when VTDKTAYIGT was run?
**A.** ≥ 21800 nM

**Q.** What about the Kd [7, 9] of the same sequence?
**A.** 4000 nM

**Q.** And the Kd [8, 9]?
**A.** 227 nM

**Q.** What does the source list for VVENPTIQK?
**A.** Kd [1, 10]: 328 nM; Kd [2, 10]: 7.63 nM; Kd [3, 10]: 18700 nM; Kd [4, 10]: ≥ 64100 nM; Kd [5, 10]: 407 nM

**Q.** Which Kd [1, 10] does the source give for WLSYFVASFR here?
**A.** 56.6 nM

**Q.** And the Kd [2, 10]?
**A.** 14.5 nM

**Q.** What about the Kd [3, 10] of the same sequence?
**A.** 0.461 nM

**Q.** What about the Kd [4, 10] of the same sequence?
**A.** 13.4 nM

**Q.** What about the Kd [5, 10] of the same sequence?
**A.** 0.494 nM

**Q.** With WVMDTLNGI as the sequence, how does the Kd [6, 9] read?
**A.** 9.78 nM

**Q.** What about the Kd [7, 9] of the same sequence?
**A.** 1.01 nM

**Q.** What about the Kd [8, 9] of the same sequence?
**A.** 0.731 nM

**Q.** Which Kd [6, 10] does the source give for YLMCLSPLMA here?
**A.** 0.237 nM

**Q.** What about the Kd [7, 10] of the same sequence?
**A.** 0.127 nM

**Q.** And the Kd [8, 10]?
**A.** 1.29 nM

**Q.** With YMLFTKFFYL as the sequence, how does the Kd [6, 10] read?
**A.** 47.7 nM

**Q.** And the Kd [7, 10]?
**A.** 45.8 nM

**Q.** What about the Kd [8, 10] of the same sequence?
**A.** 20.3 nM

**Q.** Which Kd [6, 13] does the source give for YNLSLSAAV here?
**A.** 867 nM

**Q.** And the Kd [7, 13]?
**A.** 1140 nM

**Q.** What about the Kd [8, 13] of the same sequence?
**A.** 1660 nM

**Q.** YSSMTSDSK was tested. Which Kd [1, 9] did it give?
**A.** 1980 nM

**Q.** What about the Kd [2, 9] of the same sequence?
**A.** 10.5 nM

**Q.** And the Kd [3, 9]?
**A.** 4860 nM

**Q.** And the Kd [4, 9]?
**A.** ≥ 21400 nM

**Q.** And the Kd [5, 9]?
**A.** 2.38 nM

**Q.** Which results are given for YVMNIERQDY?
**A.** Kd [1, 9]: ≥ 70100 nM; Kd [2, 9]: 19000 nM; Kd [3, 9]: 10200 nM; Kd [4, 9]: ≥ 23300 nM; Kd [5, 9]: 189 nM

**Q.** YVNHTLTGQH was tested. Which Kd [1, 14] did it give?
**A.** ≥ 70000 nM

**Q.** And the Kd [2, 14]?
**A.** ≥ 69700 nM

**Q.** And the Kd [3, 14]?
**A.** ≥ 70000 nM

**Q.** What about the Kd [4, 14] of the same sequence?
**A.** 29.5 nM

**Q.** What about the Kd [5, 14] of the same sequence?
**A.** ≥ 70100 nM
